According to US20180086832A1 (Johns Hopkins, published 2018):
Substitutions are numbered along the chain they refer to. In names and notes the source's numbering stands.

Experiments:
[1] = target: T1, KRAS(WT)-HLA-A2 (human, biotinylated in the recombinant monomer (site not stated)); test: ELISA on monomers, anti-human IgG
T1 construct: Monomer in ELISA and off-rate assays; on pulsed T2 cells in flow cytometry and CDC; also called KRAS(WT)-HLA-A2 monomer; KRAS(WT) peptide-pulsed T2 cells

[2] = target: T2, EGFR(WT)-HLA-A3 (human); test: off-rate ELISA on monomer-coated strips, 22 C
T2 construct: also called EGFR(WT) peptide-pulsed T2A3 cells

[3] = target: T3, KRAS(WT)-HLA-A3 (human, biotinylated in the recombinant monomer (site not stated)); test: flow cytometry, T2A3 cells pulsed with the KRAS(WT) control peptide
T3 construct: Monomer in ELISA; also called KRAS(WT)-HLA-A3 monomer; KRAS(WT) control peptide on T2A3 cells

[4] = target: T4, ELA control peptide on HLA-A2 (human); test: flow cytometry, peptide-pulsed T2 cells
T4 construct: ELA-pulsed T2 cells; also called negative HLA-A2 control peptide ELA; irrelevant peptide

[5] = target: T1, KRAS(WT)-HLA-A2; test: flow cytometry, peptide-pulsed T2 cells
[6] = target: T1, KRAS(WT)-HLA-A2; test: off-rate ELISA on monomer-coated strips
[7] = target: T3, KRAS(WT)-HLA-A3; test: ELISA of purified scFv on monomers, anti-Flag
[8] = target: T1, KRAS(WT)-HLA-A2; test: phage ELISA after affinity maturation

B1: D10 MANAbody (antibody, V domains shown)
VH: EVQLVESGGGLVQPGGSLRLSCAASGFNINGSYIHWVRQAPGKGLEWVAYIDPETGYSRYADSVKGRFTISADTSKNTAYLQMNSLRAEDTAVYYCSRDSASDAMDVWGQGTLVTVSS
VL: DIQMTQSPSSLSASVGDRVTITCRASQDVNTAVAWYQQKPGKAPKLLIYSASFLYSGVPSRFSGSRSGTDFTLTISSLQPEDFATYYCQQYYYYPPTFGQGTKVEIK
notes: Complete bivalent antibody made in Expi293 cells; also called full-length D10 MANAbody; D10 antibody
B1: no binding (tested: 1 µg/mL (top of the dilution series)) [1].

B2: purified C9 scFv (scFv)
scFv: DIQMTQSPSSLSASVGDRVTITCRASQDVNTAVAWYQQKPGKAPKLLIYSASFLYSGVPSRFSGSRSGTDFTLTISSLQPEDFATYYCQQYYSYPPTFGQGTKVEIKRTGGGSGGGGSGGGASEVQLVESGGGLVQPGGSLRLSCAASGFNITSSYIHWVRQAPGKGLEWVAYISPEDGYARHADSVKGRFTISADTSKNTAYLQMNSLRAEDTAVYYCSRDDTYYYSAMDVWGQGTLVTVSS
notes: not shown: Flag and His tags
B2 showed a koff [2] of 3e-05 s⁻¹.

B3: phage clone C9 (scFv, not shown: large carriers)
scFv: B2 scFv
notes: also called C9 phage
B3: no binding [3].

B4: D3E6 phage (scFv)
scFv: DIQMTQSPSSLSASVGDRVTITCRASQDVNTAVAWYQQKPGKAPKLLIYSASFLYSGVPSRFSGSRSGTDFTLTISSLQPEDFATYYCQQYYYYPPTFGQGTKVEIKRTGGGSGGGGSGGGASEVQLVESGGGLVQPGGSLRLSCAASGFNISTSYIHWVRQAPGKGLEWVATIDPNDGYSRYADSVKGRFTISADTSKNTAYLQMNSLRAEDTAVYYCSRTNNTAADAMDVWGQGTLVTVSS
notes: also called EGFR T790M clone 1; not shown: myc tag, TEV cleavage site and full length M13 pIII coat protein
B4: no binding [4].

B5: KRAS G12V_F10 AM#1 (scFv)
scFv: DIQMTQSPSSLSASVGDRVTITCRASQDVNTAVAWYQQKPGKAPKLLIYSASFLYSGVPSRFSGSRSGTDFTLTISSLQPEDFATYYCQQYYYYPPTFGQGTKVEIKRTGGGSGGGGSGASEVQLVESGGGLVQPGGSLRLSCAASGFNINSNYIHWVRQAPGKGLEWVAYITPETGYYHYADSVKGRFTISADTSKNTAYLQMNSLRAEDTAVYYCSRNYYSAYAMDVWGQGTLVTVSS
B5: no binding [5].

B6: KRAS G12V_F10 AM#2 (scFv)
scFv: B5 scFv with S50G, N149Y
B6: no binding [5].

B7: KRAS G12V_F10 AM#3 (scFv)
scFv: B5 scFv with T5S, A25T, V29A, I48F, Y55F, H180R
B7: no binding [5].

B8: purified D10-7 scFv (scFv, not shown: small tags and cut ends)
scFv: DIQMTQSPSSLSASVGDRVTIACRASQDVNTAVAWYQQKPGKAPKLLIYSASFLYSGVPSRFSGSRSGTDFTLTISSLQPEDFATYYCQQYYYYPPTFGQGTKVEIKRTGGGSGGGGSGGGASEVQLVESGGGLVQPGGSLRLSCAASGFHINGSYIHWVRQAPGKGLKWVAYIDPETGYSRYADSVKGRFAISADMSKNTAYLQMNSLRAEDTAVYYCSRDSASDAMDVWGQGTLVTVSS
notes: conjugated to an anti-V5 antibody in the CDC assay
B8: no binding [6].

B9: purified D10 scFv (scFv, not shown: small tags and cut ends)
scFv: B8 scFv with A22T, H151N, K169E, A192T, M197T
notes: Flag/His form in ELISA, AlphaScreen and off-rate assays; V5/His form in cell staining and, conjugated 2:1 to an anti-V5 mouse antibody, in the CDC assay
B9: no binding (tested: 1 µg/mL (top of the dilution series)) [7].

B10: clone D10-7 (phage, as tested by ELISA in the affinity maturation) (scFv)
scFv: B8 scFv
notes: One of eight clones from the error-prone PCR library of D10; not shown: phage display fusion partner used at AxioMx is not described
B10: no binding [8].
